Test results as given in patent EP1233271A1 (Huber, Lukas, dated 2002).

Target: T1, GST (UniProt P08515 1-218 = GST)
T1 construct: Negative control of the pull-down; also called GST alone
Assay: GST pull-down on GSH-sepharose, immunoblot

T1 sequence (P08515 whole entry): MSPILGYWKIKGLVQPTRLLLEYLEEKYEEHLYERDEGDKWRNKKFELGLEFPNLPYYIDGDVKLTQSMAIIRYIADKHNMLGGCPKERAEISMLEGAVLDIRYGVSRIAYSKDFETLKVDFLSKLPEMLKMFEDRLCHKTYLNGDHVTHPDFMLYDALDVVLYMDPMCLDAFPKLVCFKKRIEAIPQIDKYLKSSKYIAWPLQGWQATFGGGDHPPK

B1: His6-T7-tagged MP1 (other, UniProt O88653 1-124, looked up)
chain: MADDLKRFLYKKLPSVEGLHAIVVSDRDGVPVIKVANDSAPEHALRPGFLSTFALATDQGSKLGLSKNKSIICYYNTYQVVQFNRLPLVVSFIASSSANTGLIVSLEKELAPLFEELIKVVEVS
notes: Recombinant, in bacterial lysate; also called His6-T7-MP1; not shown: N-terminal His6-T7 tag from vector pET28 (Novagen)
binding result: no binding
